Measured values reported in US12139531B2, “Compositions and methods useful in promoting milk production” (The Regents of the University of California, priority 2019, dated 2024).
“Also recorded” adds a separate entry of the source.

What was measured:
[1] = tested on: Notch signaling; assay: RT-qPCR of Notch effector expression (Hey1, Hes1) in HC11 cells; type: cell-based, mouse; settings: HC11 cells treated with ROBO1-ECD fragments
Procedure: (§1) To examine the effects of ROBO1-ECD fragments on Notch signaling, HC11 cells were treated with ROBO1-ECD fragments and Notch effector expression assessed. […] In addition, HC11 cells were treated with ROBO-Ig5 during differentiation. These cells were then fractionated and a Western blot performed to detect HES1 and NOTCH4-ICD (FIG. 8B).
Total RNA was harvested from cells lysed in TRIzol reagent (Invitrogen) and phase separated according to manufacturer's protocol with an additional overnight RNA precipitation stem in ethanol (Macias et al., 2011). The RNA was further purified with TURBO DNase (Ambion) treatment. Total RNA quality was analyzed by agarose gel electrophoresis and quantified with an ND-1000 spectrophotometer (NanoDrop). cDNA libraries were prepared from 1 μg of total RNA using iScript cDNA synthesis kit (BioRad). Quantitative RT-PCR was performed in triplicates using light Cycler 480 SYBR Green I Master (Roche) and quantified using BioRad CFX'Connect Real-Time System and CFX Manager software (BioRad). Results were normalized to GAPDH.

[2] = tested on: NOTCH4; assay: Cell fractionation and Western blot for HES1 and NOTCH4-ICD in HC11 cells; type: cell-based, mouse; settings: HC11 cells treated during differentiation
Procedure: Notch receptor activation can be regulated through direct interactions with binding partners^24. […] To address this possibility, co-immunoprecipitation experiments were performed using MBA-MD-231 cells lysates, which express detectable levels of all four Notch receptors (NOTCH1-4). Endogenous ROBO1 co-immunoprecipitated with NOTCH4, but not […], NOTCH2 or NOTCH3 (FIG. 3H and data not shown). Next, the expression and subcellular localization of the NOTCH4 intracellular domain (N4-ICD) and HES1 was examined in control (Scr) and Robo1 (siR1) knockdown HC11 cells. Expression of Robo1 was inhibited in HC11 cells that were then primed for differentiation as described above. […] This effect was not observed in control Robo1 knockdown cells engineered to overexpress Robo1 (siR1+o/e) or cells treated with the γ-secretase inhibitor GSI (siR1+GSI) (FIGS. 3I-3K).
as §1
Protein lysates were prepared by directly lysing adherent cells in 1× sample buffer supplemented with 5% beta-mercaptoethanol and boiled for 5 minutes. Protein lysate was resolved by SDS-PAGE and transferred to a PVDF for 90 minutes at 400 mA or overnight at 30 mA. Primary antibodies were used at the concentration indicated in Table 1 and incubated overnight at 4° C. HRP conjugated secondary antibodies (Jackson Labs) were used at 1:3000 and incubated for 45 minutes at room temp. All proteins were detected using Clarity ECL (BioRad) using a BioRad Chemi-Doc MP Imager and quantified using ImageLab software as previously described a.

[3] = tested on: mammary gland; assay: Subcutaneous injection into ovariectomized, hormone-treated mice; carmine-stained mammary gland branching; type: in vivo; settings: 14 days, ovariectomized animals given E, P, Prl
Procedure: The influence of ROBO1 ECD fragments in vitro on primary alveolar progenitor cell growth and in vivo on branching morphogenesis was tested. FACS-purified murine and bovine alveolar progenitor cells (AVPs) were plated as single cells in Matrigel and grown for 10 days in the absence and presence of ROBO1-ECDs fragments (FIGS. 9A, B). […] ROBO1-Ig5 fragments were also tested in vivo by subcutaneously injecting them (7.5 mammary gland/kg/day) into ovariectomized animals that were orally administered hormones in Nutella: estrogen (E, 1 μg/day), progesterone (P, 1 mg/day mammary gland/day) and prolactin (Prl, 0.2 mg/day mammary gland/day) (FIG. 9C). The mammary glands were harvested after 14 days of ROBO1-Ig5 fragment treatment, carmine stained and evaluated. […] Other aspects can involve ROBO1-ECD constructs that are tagged with the murine-Fc sequence. This tag is recognized by an endogenous receptor that facilitates transport into tissues 4. Mouse mammary glands were surgically dissected, spread onto a glass slide, and fixed in Carnoy's solution (25% glacial acetic acid and 75% ethanol). […] C57BL mice (8-10 weeks old) were bilaterally ovariectomized and allowed to recover for 1 week^47. During the recovery, mice were trained with oral administration Nuttella. Mice were fed Nutella mixed with 17beta-estradiol (E, 1 μg, Sigma)+progesterone (P, 1 mg, Sigma) for three weeks (daily). For ROBO1-Ig5 ECD, prolactin (Prl, 200 μg, NHPP) was given by Nutella oral administration over one week (daily), starting after 1 week E+P. For ROBO2 mAb, prolactin (Prl, 50 μg) was injected by intraperitoneal injection over 2.5 weeks (daily), starting after 1 week E+P. ROBO1-Ig5 ECD was injected subcutaneously (7.5 mg/kg ROBO1-Ig5 ECD or PBS; daily) over the 2 weeks period, starting after 1 week of E+P. ROBO2 mAbs or IgG isotype control mAbs ([…]) were injected subcutaneously twice/week over 17 days, starting after 1 week of E+P^48.

[4] = tested on: bovine alveolar progenitor cells (AVPs); assay: Organoid growth of FACS-purified bovine alveolar progenitor cells in Matrigel; type: cell-based; settings: single cells in Matrigel, 10 days, vs untreated controls
Procedure: The influence of ROBO1 ECD fragments in vitro on primary alveolar progenitor cell growth and in vivo on branching morphogenesis was tested. FACS-purified murine and bovine alveolar progenitor cells (AVPs) were plated as single cells in Matrigel and grown for 10 days in the absence and presence of ROBO1-ECDs fragments (FIGS. 9A, B). […] ROBO1-Ig5 fragments were also tested in vivo by subcutaneously injecting them (7.5 mammary gland/kg/day) into ovariectomized animals that were orally administered hormones in Nutella: estrogen (E, 1 μg/day), progesterone (P, 1 mg/day mammary gland/day) and prolactin (Prl, 0.2 mg/day mammary gland/day) (FIG. 9C). The mammary glands were harvested after 14 days of ROBO1-Ig5 fragment treatment, carmine stained and evaluated. […] Other aspects can involve ROBO1-ECD constructs that are tagged with the murine-Fc sequence. This tag is recognized by an endogenous receptor that facilitates transport into tissues 4.
FACS purified AVPs were cultured in Matrigel (BD Bioscience) at a density of 5000 cell/100 uL and cultured in basal medium; DMEM: F12 phenol-free, 10 mM HEPES, N2 (Gibco), B27 (Gibco) supplemented with 100 ng/mL Neuregulin (R&D), 42.5 ng/mL R-Spondin1 (Peprotech) […]. […]

B1: ROBO1-Ig5: recombinant soluble ROBO1 ECD construct comprising all five Ig domains (protein)
chain: SRLRQEDFPPRIVEHPSDLIVSKGEPATLNCKAEGRPTPTIEWYKGGERVETDKDDPRSHRMLLPSGSLFFLRIVHGRKSRPDEGVYICVARNYLGEAVSHNASLEVAILRDDFRQNPSDVMVAVGEPAVMECQPPRGHPEPTISWKKDGSPLDDKDERITIRGGKLMITYTRKSDAGKYVCVGTNMVGERESEVAELTVLERPSFVKRPSNLAVTVDDSAEFKCEARGDPVPTVRWRKDDGELPKSRYEIRDDHTLKIRKVTAGDMGSYTCVAENMVGKAEASATLTVQEPPHFVVKPRDQVVALGRTVTFQCEATGNPQPAIFWRREGSQNLLFSYQPPQSSSRFSVSQTGDLTVTNVQRSDVGYYICQTLNVAGSIITKAYLEVTDVIADRPPPVIRQGPVNQTVAVDGTLTLSCVATGSPVPTILWRKDGVLVSTQDSRIKQLESGVLQIRYAKLGDTGRYTCTASTPSGEATWSAYIEVQEF
Hes1 expression [1]: lower expression; also recorded: decreased
Hey1 expression [1]: lower expression; also recorded: decreased
NOTCH4-ICD in the cytoplasmic fraction [2]: lower; also recorded: reduced
HES1 protein in the nuclear fraction ([2]; relative to control treatment): lower levels; also recorded: decreased
NOTCH4-ICD (N4-ICD) protein in the nuclear fraction ([2]; relative to control treatment): lower levels; also recorded: decreased
mammary gland area (size) [3]: significantly greater area
number of primary (1°) branches [3]: higher number
overall branching density [3]: not different from that of controls; also recorded: no increase
secondary (2°) and tertiary (3°) branching [3]: More and Increased
mammary gland area (size) ([3]; listed as ROBO1-Ig-5): Increased
number of primary (1°) branches ([3]; listed as ROBO1-Ig-5): Increased
size of bovine organoids [4]: larger bovine organoids; also recorded: increased the size
